T1: CD123 (Homo sapiens (Human), UniProt P26951 19-305, limits assumed)
T1 construct: also called CD123-Signal
T1 sequence: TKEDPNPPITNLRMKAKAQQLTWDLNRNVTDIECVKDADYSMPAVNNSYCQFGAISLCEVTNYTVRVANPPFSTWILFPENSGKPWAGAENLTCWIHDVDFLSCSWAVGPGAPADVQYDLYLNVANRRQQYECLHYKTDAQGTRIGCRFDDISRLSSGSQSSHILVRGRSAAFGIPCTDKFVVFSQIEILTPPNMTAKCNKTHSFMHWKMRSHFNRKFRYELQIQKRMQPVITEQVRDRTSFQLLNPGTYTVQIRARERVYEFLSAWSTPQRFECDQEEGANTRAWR


Target: T1, CD123
Experiment: ELISA, format not described
Design: unit not given here

| Binder | ELISA_avg |
| --- | --- |
| D domain SEQ ID NO: 716 (designed binder) MGSWMEFIDRLDAIEHRLWALGGSEAELAAFEKEIAAFESELQAYKGKGNPEVEFLREEAAEIRMYLQAYRHN | 4.3 |
| D domain SEQ ID NO: 720 (designed binder) MGSWVEFYDRLDAIEHRLDALGGSEAELAAFEKEIAAFESELQAYKGKGNPEVEWLRDEAAFIRDMLQAYRHN | 3.4 |
| D domain SEQ ID NO: 728 (designed binder) MGSWWEFEDRLDAIEYRLFALGGSEAELAAFEKEIAAFESELQAYKGKGNPEVEFLREEAAFIRIFLQAYRHN | 4.9 |
| D domain SEQ ID NO: 718 (designed binder) MGSWVEFYDRLYAIEVRLLALGGSEAELAAFEKEIAAFESELQAYKGKGNPEVEFLRQEAAEIRDWLQAYRHN | 5.8 |
| D domain SEQ ID NO: 723 (designed binder) MGSWYEFMVRLDAIEERLFALGGSEAELAAFEKEIAAFESELQAYKGKGNPEVEFLREEAASIRYHLQAYRHN | 4.1 |
| D domain SEQ ID NO: 717 (designed binder) MGSWTEFVWRLDAIEWRLEALGGSEAELAAFEKEIAAFESELQAYKGKGNPEVEFLREEAAEIRDWLQAYRHN | 4.2 |
| D domain SEQ ID NO: 726 (designed binder) MGSWVEFEYRLDAITERLLALGGSEAELAAFEKEIAAFESELQAYKGKGNPEVEILREEAAFIRQWLQAYRHN | 3.9 |
| D domain SEQ ID NO: 721 (designed binder) MGSWFEFVDRLTAIQVRLWALGGSEAELAAFEKEIAAFESELQAYKGKGNPEVEYLREEAALIRYSLQAYRHN | 5.1 |
| D domain SEQ ID NO: 719 (designed binder) MGSWYEFYDRLDAIEWRLWALGGSEAELAAFEKEIAAFESELQAYKGKGNPEVEWLRDEAAQIRDFLQAYRHN | 6.2 |
| D domain SEQ ID NO: 727 (designed binder) MGSWWEFLDRLDAIEMRLFALGGSEAELAAFEKEIAAFESELQAYKGKGNPEVEYLREEAALIRNMLQAYRHN | 9 |
| D domain SEQ ID NO: 722 (designed binder) MGSWFEFLDRLDAIEERLWALGGSEAELAAFEKEIAAFESELQAYKGKGNPEVEWLREEAAVIRDSLQAYRHN | 12.2 |

Next, values leading:

| ELISA_avg | Binder |
| --- | --- |
| 5.1 | D domain SEQ ID NO: 743 (designed binder) MGSWFEFEDRLDAIWDRLWALGGSEAELAAFEKEIAAFESELQAYKGKGNPEVEFLRMDAAMIRYILQAYRHN |
| 4.2 | D domain SEQ ID NO: 741 (designed binder) MGSWTEFEWRLYAIEDRLMALGGSEAELAAFEKEIAAFESELQAYKGKGNPEVEFLRDEAADIRQYLQAYRHN |
| 4.5 | D domain SEQ ID NO: 738 (designed binder) MGSWVEFWDRLWAIEDRLWALGGSEAELAAFEKEIAAFESELQAYKGKGNPEVEHLRHYAADIRVWLQAYRHN |
| 11.5 | D domain SEQ ID NO: 740 (designed binder) MGSWYEFEERLYAIEDRLYALGGSEAELAAFEKEIAAFESELQAYKGKGNPEVEFLRQEAADIRLMLQAYRHN |
| 8.7 | D domain SEQ ID NO: 742 (designed binder) MGSWIEFESRLWAIEDRLLALGGSEAELAAFEKEIAAFESELQAYKGKGNPEVEFLRLEAADIREDLQAYRHN |
| 3.7 | D domain SEQ ID NO: 729 (designed binder) MGSWWEFESRLDAIFMRLTALGGSEAELAAFEKEIAAFESELQAYKGKGNPEVEDLREDAAFIREFLQAYRHN |
| 4 | D domain SEQ ID NO: 739 (designed binder) MGSWYEFADRLWAIEDRLWALGGSEAELAAFEKEIAAFESELQAYKGKGNPEVEFLRYYAADIRWVLQAYRHN |

From US20250026849A1 (ARCELLX, published 2025)
